# ± gives the uncertainty stated by the source.
# B1: Zinc finger MYM-type protein 6, residues 427 to 504; numbered along this chain, O95789 (parent)
# chain: KLKCQHCNHLFATKPELLFYKGKMFLFCGKNCSDEYKKKNKVVAMCDYCKLQKIIKETVRFSGVDKPFCSEVCKFLSA
# Variants of: B1
# Test: abundance fitness (aPCA) (normalised: wild type 0, dead -1); higher = more abundant; growth selection in yeast, the domain comes from the species named
# Details: Homo sapiens
row,Variant,abundance fitness
1,KLKCQHCNHLFATKPELLFYKGKMFLFCGKNCSDEYSKKNKVVAMCDYCKLQKIIKETVRFSGVDKPFCSEVCKFLSA [K37S],-0.068 ± 0.051
2,KLKCQHCNHLFATKPELLFYKGKMFLFCGKNCSDEYKKKNKVVAMCDYCKLQKIIKETVRFSGVDKPYCSEVCKFLSA [F68Y],0.439 ± 0.39
3,KLKCQHCNHLFATKPELLFYKGKMFLFCGKNCSDEYKKKNKVVAMCDYCKLQKIIKGTVRFSGVDKPFCSEVCKFLSA [E57G],-0.163 ± 0.069
4,KLKCQHCNHLFATKPELLFYKGKMFLFCGKNCSDEYKKKNKVVAMCDYCKLQKIIKETVRFSGVDCPFCSEVCKFLSA [K66C],-0.635 ± 0.33
5,KLKCQHCNHLFATKPELLFYKGKIFLFCGKNCSDEYKKKNKVVAMCDYCKLQKIIKETVRFSGVDKPFCSEVCKFLSA [M24I],0.19 ± 0.38
6,KLKCQHCNHLFATKPELLFYKGKMFLFCGKNCSDEYKKKNKVVAMCDYCKLQKTIKETVRFSGVDKPFCSEVCKFLSA [I54T],0.104 ± 0.17
7,KLKCQHCNHLFATKPKLLFYKGKMFLFCGKNCSDEYKKKNKVVAMCDYCKLQKIIKETVRFSGVDKPFCSEVCKFLSA [E16K],0.002 ± 0.032
8,KLKCQHCNHLFATKPELLFYKGKMFLFCGKNCSDEYKKKNKVVARCDYCKLQKIIKETVRFSGVDKPFCSEVCKFLSA [M45R],-0.062 ± 0.073
9,KLKCQHCNHLFATKPELLFYKGKMFLFCGKNCSDEYKKKNKVVAHCDYCKLQKIIKETVRFSGVDKPFCSEVCKFLSA [M45H],-0.345 ± 0.36
10,KLKCQHCNHLFATKPELLFYKGKMFLFCGKNCSDEYKKKNKVVAMCDYCKLQKIIKETVRFSGSDKPFCSEVCKFLSA [V64S],-0.107 ± 0.1
11,KLKCQHCNHLFATKPELLFYKGKMFLFCGKNCSDEYKKKNKVVEMCDYCKLQKIIKETVRFSGVDKPFCSEVCKFLSA [A44E],-0.112 ± 0.16
12,KLKCQHCNHLFATKPELLFYKGKMFLFCGKNCSDEYKKKNKVVAMCDYCKLQKIIKETARFSGVDKPFCSEVCKFLSA [V59A],-0.078 ± 0.095
13,KLKCQHCNHLFATKPELLFYKGKMFLFCGKNCSDEYKKKNKVVAMCDYCKLQKIIKETVRFSGVFKPFCSEVCKFLSA [D65F],-0.598 ± 0.2
14,KLKCQHCNHLFATKPELLFYKGKMFLFCGKNCSDEYKKKNKVVAMCDYCKLQKIIKETVRFSGVIKPFCSEVCKFLSA [D65I],-0.666 ± 0.3
15,KLKCQHCNHLFATKPELLFYKGKMFLFCGKNCSDEYKKKNKVVAMCDYCKLQKIIKETVRFSGVDKPFCSEVCNFLSA [K74N],-0.996 ± 0.23
16,KLKCQHCNHLFATKPELLFYKGKMFLFCGKNCSDGYKKKNKVVAMCDYCKLQKIIKETVRFSGVDKPFCSEVCKFLSA [E35G],-0.007 ± 0.028
17,KLKCQHCNHLFATKPELLFYKGKMFLFCGKNCSDEYKKKNKVVAMCDYCKLQKISKETVRFSGVDKPFCSEVCKFLSA [I55S],0.305 ± 0.088
18,KLKCQHCNHLFATKPELLFYKGLMFLFCGKNCSDEYKKKNKVVAMCDYCKLQKIIKETVRFSGVDKPFCSEVCKFLSA [K23L],-0.067 ± 0.045

row,Variant,abundance fitness
1,KLKCQHCNHLFATKPELLFYKGKMFLFCGKNCSDEYKKKNKVVAMCDYCKLQKIIKETVNFSGVDKPFCSEVCKFLSA [R60N],0.366 ± 0.19
2,KLKCQHCNHLFATKPELLFYKGKMFLFCGKNCSDEYKKKNKVVAMCDYCKLQKIIKETVCFSGVDKPFCSEVCKFLSA [R60C],-0.059 ± 0.1
3,KLKCQHCNHLFATKPETLFYKGKMFLFCGKNCSDEYKKKNKVVAMCDYCKLQKIIKETVRFSGVDKPFCSEVCKFLSA [L17T],0.086 ± 0.041
4,KLKCQHCNHLFATKPEYLFYKGKMFLFCGKNCSDEYKKKNKVVAMCDYCKLQKIIKETVRFSGVDKPFCSEVCKFLSA [L17Y],-0.081 ± 0.072
5,KLKCQHCNHLFATKPELLFYKGKMFLFCGKNCSDEYKKKNKVVAMDDYCKLQKIIKETVRFSGVDKPFCSEVCKFLSA [C46D],-0.531 ± 0.15
6,KLKCQHCNHLFATKPELLFYKGKMFLFCGKNCSDEYKKKNKVVAMCDYCYLQKIIKETVRFSGVDKPFCSEVCKFLSA [K50Y],-0.48 ± 0.5
7,KLKCQHCNHLCATKPELLFYKGKMFLFCGKNCSDEYKKKNKVVAMCDYCKLQKIIKETVRFSGVDKPFCSEVCKFLSA [F11C],-0.098 ± 0.048
8,KLKCQHCNHLFATKPELLFYKGKMFLFCGKNCSDEYKKKNKVWAMCDYCKLQKIIKETVRFSGVDKPFCSEVCKFLSA [V43W],-0.416 ± 0.27
9,KLKCQHCNHLFATKPELLFYKGKMFLFCGKNCSDEYKKKNKVHAMCDYCKLQKIIKETVRFSGVDKPFCSEVCKFLSA [V43H],-0.763 ± 0.22
10,KLKCQHCNHLFATKPELLFYKGKMFLFCGKNCSDEYKKKNKVNAMCDYCKLQKIIKETVRFSGVDKPFCSEVCKFLSA [V43N],0.239 ± 0.17
11,KLKCQHCNHLFATKPELLFYKGKMFLFWGKNCSDEYKKKNKVVAMCDYCKLQKIIKETVRFSGVDKPFCSEVCKFLSA [C28W],-1 ± 0.082
12,KLKCQHCNHLFATKPELLFYCGKMFLFCGKNCSDEYKKKNKVVAMCDYCKLQKIIKETVRFSGVDKPFCSEVCKFLSA [K21C],-0.036 ± 0.047
13,KLKCQHCNHLFATKFELLFYKGKMFLFCGKNCSDEYKKKNKVVAMCDYCKLQKIIKETVRFSGVDKPFCSEVCKFLSA [P15F],-0.478 ± 0.085
14,KLKCQHCNHLFATSPELLFYKGKMFLFCGKNCSDEYKKKNKVVAMCDYCKLQKIIKETVRFSGVDKPFCSEVCKFLSA [K14S],-0.085 ± 0.035
15,KLKCQHCNHLFATKPELLFYKGKMFLFCGKNCSDEYKKKNKVVAMCDYCKLQKIIKETVRFSGVDKPFCSEVDKFLSA [C73D],-0.505 ± 0.37
16,KLKCQHCNHLFATKPELLFYKTKMFLFCGKNCSDEYKKKNKVVAMCDYCKLQKIIKETVRFSGVDKPFCSEVCKFLSA [G22T],-0.054 ± 0.049
17,KLKCQHCNHLFATKPELLFYKGKMFLFCGDNCSDEYKKKNKVVAMCDYCKLQKIIKETVRFSGVDKPFCSEVCKFLSA [K30D],-0.138 ± 0.043
